Measured values published in US20240117030A1 (Pfizer, published 2024).

B1: TSLP-0156 (antibody, human IgG1, lambda, V domains shown)
VH: QMQLVESGGGVVQPGRSLRLSCAASGFTFRTYGMHWVRQAPGKGLEWVAVIWYDGSNKHYADSVKGRFTISRDNSKNTLYLQMNSLRAEDTAVYYCARAPQWYLVHEAFDIWGQGTMVTVSS
VL: SYVLTQPPSVSVAPGQTARITCGGNNLGSKSVHWYQQKPGQAPVLVVYDDSDRPSWIPERFSGSNSGNTATLTISRGEAGDEADYYCQVWDSSSDHVVFGGGTKLTVLG
B2: IL413TSLP-1028 (trispecific antibody)
heavy: not shown
chain 1: DIQMTQSPSSLSASVGDRVTITCKASESVDHFGWSLVHWYQQKPGKAPKLLIYRASNLESGVPSRFSGSGSGTDFTLTISSLQPEDFATYYCQQSNEDPWTFGGGTKVEIKRTVAAPSVFIFPPSDEQLKSGTASVVCLLNNFYPREAKVQWKVDNALQSGNSQESVTEQDSKDSTYSLSSTLTLSKADYEKHKVYACEVTHQGLSSPVTKSFNRGECGGGGSEVTLRESGPALVKPTQTLTLTCTFSGFSLSNFGEGLSWIRQPPGKGLEWLAHIYWDDDKRYNPSLKSRLTISKDTSRNQVVLTMTNMDPVDTATYYCARRETVFYWYFDVWGQGTTVTVSSASTKGPSVFPLAPSSKSTSGGTAALGCLVKDYFPEPVTVSWNSGALTSGVHTFPAVLQSSGLYSLSSVVTVPSSSLGTQTYICNVNHKPSNTKVDKKVEPKSCEKTHTCPPCPAPEAAGAPSVFLFPPKPKDTLMISRTPEVTCVVVDVSHEDPEVKFNWYVDGVEVHNAKTKPREEQYNSTYRVVSVLTVLHQDWLNGKEYKCKVSNKALPAPIEKTISKAKGQPREPQVYTLPPSREEMTKNQVSLTCEVKGFYPSDIAVEWESNGQPENNYKTTPPVLDSDGSFFLYSKLTVDKSRWQQGNVFSCSVLHEALHSHYTQKSLSLSPGK
light 1: SYVLTQPPSVSVAPGQTARITCGGNNLGSKSVHWYQQKPGQAPVLVVYDDSDRPSWIPERFSGSNSGNTATLTISRGEAGDEADYYCQVWDSSSKHVVFGGGTKLTVLGQPKAAPSVTLFPPSSEELQANKATLVCLISDFYPGAVTVAWKADSSPVKAGVETTTPSKQSNNKYAASSYLSLTPEQWKSHRSYSCQVTHEGSTVEKTVAPTECS
light 2: DIQMTQSPSSLSASVGDRVTITCRASQSVDEEGDSYMNWYQQKPGKAPKLLIYAASNLESGVPSRFSGSGSGTDFTLTISSLQPEDFATYYCQQSNKDPPTFGGGTKVEIKRTVAAPSVFIFPPSDEQLKSGTASVVCLLNNFYPREAKVQWKVDNALQSGNSQESVTEQDSKDSTYSLSSTLTLSKADYEKHKVYACEVTHQGLSSPVTKSFNRGEC
chain 2: EVQLVESGGGLVQPGGSLRLSCAASGFTFSSYAMSWVRQAPGKGLEWVASISSGDTTYYPDSVKGRFTISRDNAKNSLYLQMNSLRAEDTAVYYCARNEGYYFGLTLWGQGTLVTVSSASTKGPSVFPLAPSSKSTSGGTAALGCLVKDYFPEPVTVSWNSGALTSGVHTFPAVLQSSGLYSLSSVVTVPSSSLGTQTYICNVNHKPSNTKVDKKVEPKSC
B3: IL413TSLP-0252 (other)
heavy: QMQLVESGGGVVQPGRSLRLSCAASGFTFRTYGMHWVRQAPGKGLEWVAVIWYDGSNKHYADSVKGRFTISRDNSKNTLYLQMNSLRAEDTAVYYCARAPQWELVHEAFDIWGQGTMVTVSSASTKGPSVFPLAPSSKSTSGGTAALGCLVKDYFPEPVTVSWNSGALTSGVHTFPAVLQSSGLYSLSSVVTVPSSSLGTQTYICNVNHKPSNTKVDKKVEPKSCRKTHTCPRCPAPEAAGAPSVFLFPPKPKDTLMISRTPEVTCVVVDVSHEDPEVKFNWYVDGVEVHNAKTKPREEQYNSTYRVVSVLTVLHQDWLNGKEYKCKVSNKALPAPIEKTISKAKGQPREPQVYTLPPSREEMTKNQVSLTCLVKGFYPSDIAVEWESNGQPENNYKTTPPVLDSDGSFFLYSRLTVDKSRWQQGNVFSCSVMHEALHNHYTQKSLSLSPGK
chain 1: DIQMTQSPSSLSASVGDRVTITCKASESVDHFGWSLVHWYQQKPGKAPKLLIYRASNLESGVPSRFSGSGSGTDFTLTISSLQPEDFATYYCQQSNEDPWTFGGGTKVEIKRTVAAPSVFIFPPSDEQLKSGTASVVCLLNNFYPREAKVQWKVDNALQSGNSQESVTEQDSKDSTYSLSSTLTLSKADYEKHKVYACEVTHQGLSSPVTKSFNRGECGGGGSEVTLRESGPALVKPTQTLTLTCTFSGFSLSNFGEGLSWIRQPPGKGLEWLAHIYWDDDKRYNPSLKSRLTISKDTSRNQVVLTMTNMDPVDTATYYCARRETVFYWYFDVWGQGTTVTVSSASTKGPSVFPLAPSSKSTSGGTAALGCLVKDYFPEPVTVSWNSGALTSGVHTFPAVLQSSGLYSLSSVVTVPSSSLGTQTYICNVNHKPSNTKVDKKVEPKSCEKTHTCPECPAPEAAGAPSVFLFPPKPKDTLMISRTPEVTCVVVDVSHEDPEVKFNWYVDGVEVHNAKTKPREEQYNSTYRVVSVLTVLHQDWLNGKEYKCKVSNKALPAPIEKTISKAKGQPREPQVYTLPPSREEMTKNQVSLTCEVKGFYPSDIAVEWESNGQPENNYKTTPPVLDSDGSFFLYSKLTVDKSRWQQGNVFSCSVMHEALHNHYTQKSLSLSPGK
light 1: SYVLTQPPSVSVAPGQTARITCGGNNLGSKSVHWYQQKPGQAPVLVVYDDSDRPSWIPERFSGSNSGNTATLTISRGEAGDEADYYCQVWDSSSDHVVFGGGTKLTVLGQPKAAPSVTLFPPSSEELQANKATLVCLISDFYPGAVTVAWKADSSPVKAGVETTTPSKQSNNKYAASSYLSLTPEQWKSHRSYSCQVTHEGSTVEKTVAPTECS
light 2: DIQMTQSPSSLSASVGDRVTITCKASQSVDEDGDSYMNWYQQKPGKAPKLLIYAASNLESGVPSRFSGSGSGTDFTLTISSLQPEDFATYYCQQSNEDPPTFGGGTKVEIKRTVAAPSVFIFPPSDEQLKSGTASVVCLLNNFYPREAKVQWKVDNALQSGNSQESVTEQDSKDSTYSLSSTLTLSKADYEKHKVYACEVTHQGLSSPVTKSFNRGEC
chain 2: EVQLVESGGGLVQPGGSLRLSCAASGFTFSSYAMSWVRQAPGKGLEWVASISSGDTTYYPDSVKGRFTISRDNAKNSLYLQMNSLRAEDTAVYYCARNEGYYFGLTLWGQGTLVTVSSASTKGPSVFPLAPSSKSTSGGTAALGCLVKDYFPEPVTVSWNSGALTSGVHTFPAVLQSSGLYSLSSVVTVPSSSLGTQTYICNVNHKPSNTKVDKKVEPKSC
B4: IL413TSLP-0251 (other)
heavy: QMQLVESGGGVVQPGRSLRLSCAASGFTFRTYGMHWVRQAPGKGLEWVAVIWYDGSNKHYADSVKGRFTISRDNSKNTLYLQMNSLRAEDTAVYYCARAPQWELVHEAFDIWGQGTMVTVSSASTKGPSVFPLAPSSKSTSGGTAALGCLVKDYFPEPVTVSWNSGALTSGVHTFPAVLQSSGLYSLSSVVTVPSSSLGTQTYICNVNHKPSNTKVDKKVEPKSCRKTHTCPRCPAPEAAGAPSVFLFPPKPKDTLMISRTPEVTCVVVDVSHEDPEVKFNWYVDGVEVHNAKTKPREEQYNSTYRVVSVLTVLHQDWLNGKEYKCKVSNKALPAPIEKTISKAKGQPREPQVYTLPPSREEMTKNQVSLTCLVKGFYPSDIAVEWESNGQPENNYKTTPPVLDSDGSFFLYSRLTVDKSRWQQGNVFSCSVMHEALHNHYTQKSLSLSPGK
chain 1: EVQLVESGGGLVQPGGSLRLSCAASGFTFSSYAMSWVRQAPGKGLEWVASISSGDTTYYPDSVKGRFTISRDNAKNSLYLQMNSLRAEDTAVYYCARNEGYYFGLTLWGQGTLVTVSSRTVAAPSVFIFPPSDEQLKSGTASVVCLLNNFYPREAKVQWKVDNALQSGNSQESVTEQDSKDSTYSLSSTLTLSKADYEKHKVYACEVTHQGLSSPVTKSFNRGECGGGGSEVTLRESGPALVKPTQTLTLTCTFSGFSLSNFGEGLSWIRQPPGKGLEWLAHIYWDDDKRYNPSLKSRLTISKDTSRNQVVLTMTNMDPVDTATYYCARRETVFYWYFDVWGQGTTVTVSSASTKGPSVFPLAPSSKSTSGGTAALGCLVKDYFPEPVTVSWNSGALTSGVHTFPAVLQSSGLYSLSSVVTVPSSSLGTQTYICNVNHKPSNTKVDKKVEPKSCEKTHTCPECPAPEAAGAPSVFLFPPKPKDTLMISRTPEVTCVVVDVSHEDPEVKFNWYVDGVEVHNAKTKPREEQYNSTYRVVSVLTVLHQDWLNGKEYKCKVSNKALPAPIEKTISKAKGQPREPQVYTLPPSREEMTKNQVSLTCEVKGFYPSDIAVEWESNGQPENNYKTTPPVLDSDGSFFLYSKLTVDKSRWQQGNVFSCSVMHEALHNHYTQKSLSLSPGK
light 1: SYVLTQPPSVSVAPGQTARITCGGNNLGSKSVHWYQQKPGQAPVLVVYDDSDRPSWIPERFSGSNSGNTATLTISRGEAGDEADYYCQVWDSSSDHVVFGGGTKLTVLGQPKAAPSVTLFPPSSEELQANKATLVCLISDFYPGAVTVAWKADSSPVKAGVETTTPSKQSNNKYAASSYLSLTPEQWKSHRSYSCQVTHEGSTVEKTVAPTECS
light 2: DIQMTQSPSSLSASVGDRVTITCKASQSVDEDGDSYMNWYQQKPGKAPKLLIYAASNLESGVPSRFSGSGSGTDFTLTISSLQPEDFATYYCQQSNEDPPTFGGGTKVEIKRTVAAPSVFIFPPSDEQLKSGTASVVCLLNNFYPREAKVQWKVDNALQSGNSQESVTEQDSKDSTYSLSSTLTLSKADYEKHKVYACEVTHQGLSSPVTKSFNRGEC
chain 2: DIQMTQSPSSLSASVGDRVTITCKASESVDHFGWSLVHWYQQKPGKAPKLLIYRASNLESGVPSRFSGSGSGTDFTLTISSLQPEDFATYYCQQSNEDPWTFGGGTKVEIKASTKGPSVFPLAPSSKSTSGGTAALGCLVKDYFPEPVTVSWNSGALTSGVHTFPAVLQSSGLYSLSSVVTVPSSSLGTQTYICNVNHKPSNTKVDKKVEPKSC
B5: IL413TSLP-1037 (trispecific antibody)
heavy: not shown
chain 1: DIQMTQSPSSLSASVGDRVTITCKASESVDHFGWSLVHWYQQKPGKAPKLLIYRASNLESGVPSRFSGSGSGTDFTLTISSLQPEDFATYYCQQSNEDPWTFGGGTKVEIKRTVAAPSVFIFPPSDEQLKSGTASVVCLLNNFYPREAKVQWKVDNALQSGNSQESVTEQDSKDSTYSLSSTLTLSKADYEKHKVYACEVTHQGLSSPVTKSFNRGECGGGGSEVTLRESGPALVKPTQTLTLTCTFSGFSLSNFGEGLSWIRQPPGKGLEWLAHIYWDDDKRYNPSLKSRLTISKDTSRNQVVLTMTNMDPVDTATYYCARRETVFYWYFDVWGQGTTVTVSSASTKGPSVFPLAPSSKSTSGGTAALGCLVKDYFPEPVTVSWNSGALTSGVHTFPAVLQSSGLYSLSSVVTVPSSSLGTQTYICNVNHKPSNTKVDKKVEPKSCEKTHTCPPCPAPEAAGAPSVFLFPPKPKDTLMISRTPEVTCVVVDVSHEDPEVKFNWYVDGVEVHNAKTKPREEQYNSTYRVVSVLTVLHQDWLNGKEYKCKVSNKALPAPIEKTISKAKGQPREPQVYTLPPSREEMTKNQVSLTCEVKGFYPSDIAVEWESNGQPENNYKTTPPVLDSDGSFFLYSKLTVDKSRWQQGNVFSCSVLHEALHSHYTQKSLSLSPGK
light 1: SYVLTQPPSVSVAPGQTARITCGGNNLGSKSVHWYQQKPGQAPVLVVYDDKDRPSWIPERFSGSNSGNTATLTISRGEAGDEADYYCQVWDKSSDHVVFGGGTKLTVLGQPKAAPSVTLFPPSSEELQANKATLVCLISDFYPGAVTVAWKADSSPVKAGVETTTPSKQSNNKYAASSYLSLTPEQWKSHRSYSCQVTHEGSTVEKTVAPTECS
light 2: DIQMTQSPSSLSASVGDRVTITCRASQSVDEEGDSYMNWYQQKPGKAPKLLIYAASNLESGVPSRFSGSGSGTDFTLTISSLQPEDFATYYCQQSNKDPPTFGGGTKVEIKRTVAAPSVFIFPPSDEQLKSGTASVVCLLNNFYPREAKVQWKVDNALQSGNSQESVTEQDSKDSTYSLSSTLTLSKADYEKHKVYACEVTHQGLSSPVTKSFNRGEC
chain 2: EVQLVESGGGLVQPGGSLRLSCAASGFTFSSYAMSWVRQAPGKGLEWVASISSGDTTYYPDSVKGRFTISRDNAKNSLYLQMNSLRAEDTAVYYCARNEGYYFGLTLWGQGTLVTVSSASTKGPSVFPLAPSSKSTSGGTAALGCLVKDYFPEPVTVSWNSGALTSGVHTFPAVLQSSGLYSLSSVVTVPSSSLGTQTYICNVNHKPSNTKVDKKVEPKSC

How the values were obtained:
Experiment in all cases: cell-based or functional assay
[1] = biological target: recombinant human TSLP (glycosylated long form) (human, UniProt Q969D9 29-159)
human TSLP (long form) = human TSLP (long form) (human, UniProt Q969D9 29-159, Biotinylated on the Avi tag in some assays; glycosylated (Expi293F expression))
human IL-13 [2] = biological target: human IL-13 (human, UniProt P35225 35-146)
human IL-4 [3] = biological target: T1, human IL-4 (human, UniProt P05112 25-153)
T1 sequence (looked up): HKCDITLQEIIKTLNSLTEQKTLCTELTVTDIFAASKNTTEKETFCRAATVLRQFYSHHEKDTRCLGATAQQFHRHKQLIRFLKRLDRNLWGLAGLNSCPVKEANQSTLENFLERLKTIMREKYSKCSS

human IL-4 [4] = biological target: T2, human IL-4 (human, UniProt P05112 25-153); remark: listed apart in the source
T2 sequence (looked up): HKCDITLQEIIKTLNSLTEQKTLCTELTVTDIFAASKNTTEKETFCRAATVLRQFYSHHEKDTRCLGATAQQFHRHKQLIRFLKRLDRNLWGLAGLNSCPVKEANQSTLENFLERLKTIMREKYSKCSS

human IL-13 [5] = biological target: human IL-13 (human, UniProt P35225 35-146); remark: listed apart in the source

Binder	IC50, IL-13-induced CCL17 secretion by 769-P cells (human IL-13 [2]) [nM]	IC50, IL-4-induced CCL17 secretion by 769-P cells (human IL-4 [3]) [nM]	a-hIL-4 IC50 [pM] (human IL-4 [4])	a-hIL-13 IC50 [pM] (human IL-13 [5])	further results
B1					TARC bioassay (IC50, pM) [1]: 4.25 pM
B2	0.811	0.139			fold lower potency than the mAb (TSLP-0855), monocyte TARC bioassay (human TSLP (long form)): ~2.5 fold
B3			3.65	11.2	
B4			6.11	13.7	
B5	0.593	0.179			fold lower potency than the mAb (TSLP-0871), monocyte TARC bioassay (human TSLP (long form)): ~2.5 fold
